Data taken from patent US20040091945A1, “Peptides and methods of screening immunogenic peptide vaccines against Alzheimer's Disease” (priority 2002, published 2004).

The molecules below were run against T1, recombinant HLA A0201 (heavy chain produced in E. coli, with human beta2-microglobulin) (human) (assay: competition with iodinated [..] for recombinant HLA A0201; 1 uM unlabelled peptide). Settings: not given.
T1 construct: also called rHLA A0201; HLA-A2.01
IIGLMVGGV [Peptide 6, IIGLMVGGV, derived from Abeta 1-42]: binds. LMVGGVVIA (6) [Peptide 10, LMVGGVVIA, derived from Abeta 1-42]: binds. GLMVGGVVI [Peptide 1, GLMVGGVVI, derived from Abeta 1-42]: binds. KLVFFAEDV [Peptide 2, KLVFFAEDV, derived from Abeta 1-42]: binds.

The molecules below were run against recombinant HLA A0201 (Homo sapiens, UniProt P04439, D140Y/D185E/D98H/E176V/E277Q/G131W/G231S/I119V/I121R/I166T/I218V/L300P/L318F/N151K/N90K/P208A/P217A/Q86G/Q94H/R138H/R169H/T345S) (assay: Competition with radiolabelled control peptide for binding to recombinant HLA A0201). Settings: initial screening, 1 uM peptide, 1 nM rHLA A0201 (FIG. 1).
Protocol: FIG. 1: FIG. 1: Binding of radiolabelled peptide to 1 nM rHLA A0201 in absence or presence of 1 uM Abeta 1-42 or homologue-derived peptides (numbered 1-10; see Table 4). Binding is shown relative to measured binding without competition (maximal binding). The control peptide (ctrl): […] (SEQ ID NO. 1).
The binding (or lack thereof) of HLA-A2.01 epitopes derived from the Abeta homologue LV/EE (modifications at positions 17 and 18) was tested in an in vitro system to validate the computer predictions. Comparisons were made to predicted epitopes from the wild-type human Abeta 1-42 sequence. Recombinant HLA A0201 heavy chains were produced in E. coli and purified from inclusion bodies according to a standard procedure described elsewhere (Ostergaard Pederson, L. et al. 2001). Briefly, HLA 0201 heavy chains (1 nM were incubated for 4 hr. at room temperature with 1 nM iodinated control binding peptide ([…]-SEQ ID No. 1; this peptide has a score of 607.884 when submitted to the ILA Peptide Binding Prediction program at BIMAS), 1000 nM human β2M and graded doses (indicated in figures) of unlabelled peptide of interest (derived from Abeta or its homologue). Receptor bound and free peptide were separated by G25 spun column chromatography (Buus, S. et al. 1995) and counted in a gamma counter (Cobra). The peptides used in this study are listed in Table 4: […]
For AEFRHDSGY, the “ability to compete away the binding of the control radiolabeled peptide to recombinant HLA-A201 molecules” value (shortened to “ability to compete away the binding”) was “did not bind well”. For FRHDSGYEV, the “ability to compete away the binding” value was “did not bind well”. For GLMVGGVVI, the “ability to compete away the binding” value was “able to compete”. With HHQKEEFFA the “ability to compete away the binding” value was “did not bind well”. In the case of IIGLMVGGV, the “ability to compete away the binding” value is reported as “able to compete”. In the case of KEEFFAEDV, the “ability to compete away the binding” value is reported as “did not bind well”. In the case of KLVFFAEDV, the “ability to compete away the binding” value is reported as “able to compete”. LMVGGVVIA was tested, and the “ability to compete away the binding” value was “able to compete”. In the case of YEVHHQKEE, the “ability to compete away the binding” value is reported as “did not bind well”. YEVHHQKLV was tested, and the “ability to compete away the binding” value was “did not bind well”.
